The results in this text go back to US20140193401A1 (published 2014).

As usually defined, the koff is the rate constant with which the complex falls apart. Read a high koff as a short-lived complex.

Common to all, as to experiment: SPR (BIAcore 3000), mAb 1B7 immobilised on CM5 chip, toxin injected
On the technique in general: Surface plasmon resonance follows binding to a sensor surface in real time, without labels.

The target in experiment [1] is T1, PTx-S1-220 T158A (Bordetella pertussis, UniProt P04977 35-254).
T1 chain: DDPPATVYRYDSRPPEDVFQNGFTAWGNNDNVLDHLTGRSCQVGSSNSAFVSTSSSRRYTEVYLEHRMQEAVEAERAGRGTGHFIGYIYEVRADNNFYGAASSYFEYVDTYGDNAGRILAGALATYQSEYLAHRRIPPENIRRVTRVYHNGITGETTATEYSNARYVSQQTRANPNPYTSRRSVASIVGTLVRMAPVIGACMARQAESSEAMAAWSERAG

Experiment [2] addresses T2, PTx-S1-220 Y166A (Bordetella pertussis, UniProt P04977 35-254).
T2 chain: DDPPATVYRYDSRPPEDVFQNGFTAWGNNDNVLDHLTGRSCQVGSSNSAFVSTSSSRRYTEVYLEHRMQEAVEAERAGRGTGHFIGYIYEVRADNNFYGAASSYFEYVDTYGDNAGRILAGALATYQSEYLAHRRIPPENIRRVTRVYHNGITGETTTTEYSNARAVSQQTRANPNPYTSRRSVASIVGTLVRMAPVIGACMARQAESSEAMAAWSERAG

Experiment [3] has as its target T3, PTx-S1-220 (truncated PTx-S1, residues 1-220, strain Tohama I, variant B) (Bordetella pertussis, UniProt P04977 35-254).
T3 construct: also called WT PTx-S1-220; PTx-S1B
T3 sequence: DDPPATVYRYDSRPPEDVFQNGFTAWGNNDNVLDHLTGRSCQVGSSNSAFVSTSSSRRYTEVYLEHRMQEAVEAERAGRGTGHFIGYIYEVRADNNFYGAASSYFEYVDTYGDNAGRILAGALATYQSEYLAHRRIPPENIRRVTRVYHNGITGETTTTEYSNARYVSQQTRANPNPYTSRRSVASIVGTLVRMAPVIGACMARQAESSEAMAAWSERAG

In experiment [4] the target is T4, PTx-S1-220 R79A (Bordetella pertussis, UniProt P04977 35-254).
T4 chain: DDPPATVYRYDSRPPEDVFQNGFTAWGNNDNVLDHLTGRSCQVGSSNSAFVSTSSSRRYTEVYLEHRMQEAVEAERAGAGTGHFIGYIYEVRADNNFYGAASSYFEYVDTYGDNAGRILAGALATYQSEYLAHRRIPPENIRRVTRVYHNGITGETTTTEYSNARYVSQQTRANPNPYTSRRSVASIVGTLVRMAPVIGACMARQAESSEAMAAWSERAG

The target in experiment [5] is T5, PTx-S1-220 T153A (Bordetella pertussis, UniProt P04977 35-254).
T5 chain: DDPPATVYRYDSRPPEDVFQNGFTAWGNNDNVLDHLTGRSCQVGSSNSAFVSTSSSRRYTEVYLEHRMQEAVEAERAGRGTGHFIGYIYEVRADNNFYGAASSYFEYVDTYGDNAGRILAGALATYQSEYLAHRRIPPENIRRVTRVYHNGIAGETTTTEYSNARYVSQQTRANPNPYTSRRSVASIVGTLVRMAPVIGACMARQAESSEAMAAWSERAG

Experiment [6] addresses T6, PTx-S1-220 T159A (Bordetella pertussis, UniProt P04977 35-254).
T6 chain: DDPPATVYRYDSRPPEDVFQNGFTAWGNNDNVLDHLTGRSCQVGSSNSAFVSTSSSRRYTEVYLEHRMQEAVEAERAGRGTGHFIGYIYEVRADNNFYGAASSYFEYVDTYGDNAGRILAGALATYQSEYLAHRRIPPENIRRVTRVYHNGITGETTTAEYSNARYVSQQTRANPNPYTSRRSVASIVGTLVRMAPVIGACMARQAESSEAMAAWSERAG

The target of experiment [7] is T7, PTx-S1-220 R146A (Bordetella pertussis, UniProt P04977 35-254).
T7 chain: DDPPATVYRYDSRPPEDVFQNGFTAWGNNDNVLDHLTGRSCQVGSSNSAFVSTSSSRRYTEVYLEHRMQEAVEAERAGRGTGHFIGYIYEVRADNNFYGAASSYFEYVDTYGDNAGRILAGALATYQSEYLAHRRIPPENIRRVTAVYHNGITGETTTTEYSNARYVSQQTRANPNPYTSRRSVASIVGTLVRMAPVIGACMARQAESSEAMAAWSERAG

The target of experiment [8] is T8, PTx-S1-220 E16A (Bordetella pertussis, UniProt P04977 35-254).
T8 chain: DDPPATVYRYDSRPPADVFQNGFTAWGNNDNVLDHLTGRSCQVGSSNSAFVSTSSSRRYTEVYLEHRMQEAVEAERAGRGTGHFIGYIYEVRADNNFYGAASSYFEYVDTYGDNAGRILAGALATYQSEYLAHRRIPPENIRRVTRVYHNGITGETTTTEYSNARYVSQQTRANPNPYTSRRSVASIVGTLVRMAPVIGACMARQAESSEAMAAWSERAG

In experiment [9] the target is T9, PTx-S1-220 T81A (Bordetella pertussis, UniProt P04977 35-254).
T9 chain: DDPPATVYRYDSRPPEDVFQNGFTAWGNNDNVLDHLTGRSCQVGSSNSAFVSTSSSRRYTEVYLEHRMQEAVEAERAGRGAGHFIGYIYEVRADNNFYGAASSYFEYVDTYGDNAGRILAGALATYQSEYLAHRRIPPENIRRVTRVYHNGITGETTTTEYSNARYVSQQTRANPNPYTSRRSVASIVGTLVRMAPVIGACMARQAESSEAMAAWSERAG

B1: murine monoclonal antibody 1B7 (antibody, V domains shown)
VH: EVQLQQSGSELVRPGASVKLSCKASGYKFTSYWMHWVKQRPGQGLEWIGNIFPGSGSTNYDEKFNSKATLTVDTSSNTAYMQLSSLTSEDSAVYYCTRWLSGAYFDYWGQGTTLTVSS
VL: DIQMTQSPALMSASPGEKVTMTCSASSSVSFMYWYQQKPRSSPKPWIYLTSNLPSGVPARFSGSGSGTSYSLTISSMEAEDAATYYCQQWSSHPPTFGSGTKLEIKR
notes: also called mAb 1B7; 1B7 mAb
B1: the koff in experiment [1] was found to be 0.0013 s⁻¹; in experiment [2] it was 0.0014 s⁻¹; in experiment [3] it was 0.0014 s⁻¹; in experiment [4], 0.025 s⁻¹; in experiment [5], 0.002 s⁻¹; in experiment [6], 0.0014 s⁻¹. Besides, the koff in [7] amounted to 0.0015 s⁻¹; in experiment [8], 0.0016 s⁻¹; in experiment [9] it was 0.0017 s⁻¹.
